T1: recombinant hAng-2 (recombinant protein with His tag attached to human Ang-2; R&D Systems) (human, UniProt O15123 19-496)
T1 construct: also called angiopoietin-2; ANGPT2
T1 sequence (looked up): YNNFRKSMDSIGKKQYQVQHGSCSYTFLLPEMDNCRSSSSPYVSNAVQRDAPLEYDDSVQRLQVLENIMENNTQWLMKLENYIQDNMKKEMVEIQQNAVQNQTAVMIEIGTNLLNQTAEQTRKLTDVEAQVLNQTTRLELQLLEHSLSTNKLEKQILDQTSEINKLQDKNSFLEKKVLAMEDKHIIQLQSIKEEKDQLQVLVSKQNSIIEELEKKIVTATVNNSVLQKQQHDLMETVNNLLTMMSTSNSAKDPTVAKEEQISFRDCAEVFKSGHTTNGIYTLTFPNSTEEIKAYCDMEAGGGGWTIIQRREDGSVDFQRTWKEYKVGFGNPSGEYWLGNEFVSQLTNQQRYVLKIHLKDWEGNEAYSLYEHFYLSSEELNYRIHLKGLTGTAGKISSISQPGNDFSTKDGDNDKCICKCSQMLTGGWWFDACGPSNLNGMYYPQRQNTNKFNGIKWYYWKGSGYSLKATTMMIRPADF


How the values were obtained:
[1] = biological target: T1, recombinant hAng-2 (recombinant protein …); assay: competitive ELISA; synergibody titrated with 1 nM hAng-2 (His) on coated hTie2-Fc
Description: A competitive ELISA is performed to assess the molecular interaction of the binders. A 96-well MaxiSorp™ flat-bottom plate (Nunc) is coated with hTie2-Fc (R&D Systems), which is a fused protein including the water-soluble extracellular portion of human Tie-2 and Fc of human IgG₁ dissolved in DMEM culture solution containing 50 μg/ml bovine serum albumin (BSA). The concentration of hTie2-Fc used as a coating material is equivalent to 75% of its maximum binding concentration with 1 nM of recombinant hAng-2 (recombinant protein with His tag attached to human Ang-2; R&D Systems). Then the plate is washed five times with Phosphate Buffer Saline (PBS) containing 0.1% Tween-20 and blocked at room temperature for two hours with PBS containing 5% BSA. Each anti-Ang-2 antibodies are diluted from 100 nM by one-fourth each time with PBS containing 1% BSA and 1 nM hAng-2 and adjusted to 6.1 pM for Ang-2:Tie-2 neutralization ELISA. 100 μl of antibody/hAng-2 solutions are placed in each corresponding well and left to react at room temperature for two hours. Then the wells are washed five times with PBS containing 0.1% Tween-20, and the anti-His antibodies (GE Healthcare) are diluted to about 1:3,000 with PBS containing 1% BSA and left to react at room temperature for one hour. Afterwards, 100 μl of goat anti-mouse-IgG-HRP (Pierce) diluted with PBS containing 1% BSA to about 1:10,000 is added to each well of the plate, left to react at room temperature for one hour, and washed with PBS containing 0.1% Tween-20 five times. Lastly, 100 μl of TMB substrate (SIGMA) is added to each well of the plate to induce color reaction, and the reaction is stopped by adding 50 μl of 5N H₂SO₄ solution. The OD₄₅₀ value is read on a plate reader (Molecular Devices).
The method described in Example 1, Section 3 above is used, except that, in the present example, each fused protein synergibodies are diluted from 100 nM to one-fourth each time with PBS containing 1% BSA and 1 nM hAng-2 and adjusted to 6.1 pM for Ang-2:Tie-2 neutralization ELISA.

[2] = biological target: T2, recombinant VEGFR-2 protein (water soluble extracellular site of human VEGFR-2 with Fc of human IgG1 … (human, UniProt P35968 20-764)); assay: competitive ELISA; synergibody titrated with 1 nM VEGFR-2 on coated VEGF 165
T2 construct: extracellular domain; Bought; not shown: Fc of human IgG1
Description: Competitive ELISA is performed using the peptides synthesized above in Section 6A in order to assess the molecular interaction of the binders. […] Then the plate is washed five times with PBS containing 0.1% Tween-20, and blocked at room temperature for two hours with PBS containing 5% BSA. For VEGF:VEGFR-2 neutralization ELISA, each of the peptides synthesized in Section 6A above are diluted to one-fourth each time from 100 nM with PBS containing 1 nM VEGFR-2 and 1% BSA, and adjusted to 6.1 pM. 100 μl of peptide/VEGFR-2 solution is added to each well and the plate is left to react at room temperature for two hours. Subsequently, it is washed five times with PBS containing 0.1% Tween-20, mouse anti-VEGFR-2 antibodies (R&D Systems) is diluted to about 1:3,000 with PBS containing 1% BSA, and left to react at room temperature for one hour. Then 100 μl of goat anti-mouse-IgG-HRP (Pierce) diluted to about 1:10,000 with PBS containing 1% BSA is added to each well of the plate, left to react at room temperature for one hour, and washed five times with PBS containing 0.1% Tween-20. Lastly, 100 μl of TMB substrate (SIGMA) is added to each well of the plate to induce color reaction. The reaction is stopped by adding 50 μl of 5N H₂SO₄ solution, and the OD₄₅₀ value is read on a plate reader (Molecular Devices). Through the foregoing, the IC₅₀ value for the VEGF:VEGFR-2 binding capacity is obtained.
The method in Example 2, Section 6B above is used, except that, in the present example, each fused protein synergibodies are diluted from 100 nM to one-fourth each time with PBS containing 1% BSA and 1nM VEGFR-2 and adjusted to 6.1 pM for VEGF:VEGF-2 neutralization ELISA.

T2 sequence (P35968 20-764): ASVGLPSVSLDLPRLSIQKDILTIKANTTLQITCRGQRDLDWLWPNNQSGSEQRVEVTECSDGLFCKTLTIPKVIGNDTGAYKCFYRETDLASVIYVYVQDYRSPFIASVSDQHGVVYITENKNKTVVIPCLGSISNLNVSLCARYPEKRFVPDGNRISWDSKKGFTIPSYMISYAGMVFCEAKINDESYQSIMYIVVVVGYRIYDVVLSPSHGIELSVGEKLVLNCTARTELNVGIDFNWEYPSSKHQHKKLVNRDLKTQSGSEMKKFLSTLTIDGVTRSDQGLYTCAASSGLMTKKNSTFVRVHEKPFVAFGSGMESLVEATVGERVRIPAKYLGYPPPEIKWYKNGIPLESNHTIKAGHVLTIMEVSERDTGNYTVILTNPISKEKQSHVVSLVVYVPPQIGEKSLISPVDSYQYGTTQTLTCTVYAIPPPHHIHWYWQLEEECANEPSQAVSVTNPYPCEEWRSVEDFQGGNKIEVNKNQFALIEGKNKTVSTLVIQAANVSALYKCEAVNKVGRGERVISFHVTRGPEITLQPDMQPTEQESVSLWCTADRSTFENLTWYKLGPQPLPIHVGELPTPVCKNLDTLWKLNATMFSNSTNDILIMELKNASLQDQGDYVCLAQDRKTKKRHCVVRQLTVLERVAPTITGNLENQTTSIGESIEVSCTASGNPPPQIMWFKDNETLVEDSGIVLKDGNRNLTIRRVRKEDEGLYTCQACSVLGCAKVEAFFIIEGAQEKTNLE

| Binder | IC50 [1] | IC50 [2] |
| --- | --- | --- |
| Syn-Ang-VEGFR-12 (other, Chimeric (human IgG1) SAITAng-2-3 with the peptide at the C-terminus of the heavy chain; also called SAITAng-2-3 x DTN8VEGFR-2-2; not shown: human IgG1 heavy chain constant region with Fc region, from the vector; human light chain constant region, printed as 'constant region of human IgG1') heavy (part 1 of 2): DVQLVESGGGLVQPGGSRKLSCAASGFTFSSFGMHWVRQAPEKGLEWVAYISSDSSTIYYADTVKGRFTISRDNPKNTLFLQMTSLRSEDTAMYYCAREGGYDDYYAMDYWGQGTSVTVSS heavy (part 2 of 2): EAGKETCGYEWQYCPRP light: DIQMTQSPASQSASLGESVTITCLASQTIGTWLAWYQQKPGKSPQLLIYAATSLADGVPSRFSGSGSGTKFSFKISSLQAEDFVSYYCQQLYSIPLTFGGGTKLEIK | 0.833 nM | 0.854 nM |
| Syn-Ang-VEGFR-13 (other, Chimeric (human IgG1) SAITAng-2-3 with the peptide at the C-terminus of the heavy chain; also called SAITAng-2-3 x DTN9VEGFR-2-3; not shown: human IgG1 heavy chain constant region with Fc region, from the vector; human light chain constant region, printed as 'constant region of human IgG1') heavy (part 1 of 2): DVQLVESGGGLVQPGGSRKLSCAASGFTFSSFGMHWVRQAPEKGLEWVAYISSDSSTIYYADTVKGRFTISRDNPKNTLFLQMTSLRSEDTAMYYCAREGGYDDYYAMDYWGQGTSVTVSS heavy (part 2 of 2): EAGAYWCKAWGLSPCLVT light: DIQMTQSPASQSASLGESVTITCLASQTIGTWLAWYQQKPGKSPQLLIYAATSLADGVPSRFSGSGSGTKFSFKISSLQAEDFVSYYCQQLYSIPLTFGGGTKLEIK | 0.903 nM | 0.914 nM |
| Syn-Ang-VEGFR-14 (other, Chimeric (human IgG1) SAITAng-2-3 with the peptide at the C-terminus of the heavy chain; also called SAITAng-2-3 x DTN10VEGFR-2-4; not shown: human IgG1 heavy chain constant region with Fc region, from the vector; human light chain constant region, printed as 'constant region of human IgG1') heavy (part 1 of 2): DVQLVESGGGLVQPGGSRKLSCAASGFTFSSFGMHWVRQAPEKGLEWVAYISSDSSTIYYADTVKGRFTISRDNPKNTLFLQMTSLRSEDTAMYYCAREGGYDDYYAMDYWGQGTSVTVSS heavy (part 2 of 2): TGSGRMCDGSGPPTNCWFT light: DIQMTQSPASQSASLGESVTITCLASQTIGTWLAWYQQKPGKSPQLLIYAATSLADGVPSRFSGSGSGTKFSFKISSLQAEDFVSYYCQQLYSIPLTFGGGTKLEIK | 0.887 nM | 0.889 nM |
| Syn-Ang-VEGFR-15 (other, Chimeric (human IgG1) SAITAng-2-3 with the peptide at the C-terminus of the heavy chain; also called SAITAng-2-3 x DTN11VEGFR-2-5; not shown: human IgG1 heavy chain constant region with Fc region, from the vector; human light chain constant region, printed as 'constant region of human IgG1') heavy (part 1 of 2): DVQLVESGGGLVQPGGSRKLSCAASGFTFSSFGMHWVRQAPEKGLEWVAYISSDSSTIYYADTVKGRFTISRDNPKNTLFLQMTSLRSEDTAMYYCAREGGYDDYYAMDYWGQGTSVTVSS heavy (part 2 of 2): PGSQGYCHLNMRYQWICDSE light: DIQMTQSPASQSASLGESVTITCLASQTIGTWLAWYQQKPGKSPQLLIYAATSLADGVPSRFSGSGSGTKFSFKISSLQAEDFVSYYCQQLYSIPLTFGGGTKLEIK | 0.925 nM | 1.05 nM |
| Syn-Ang-VEGFR-16 (other, Chimeric (human IgG1) SAITAng-2-4 with the peptide at the C-terminus of the heavy chain; also called SAITAng-2-4 x DTN6VEGFR-2-1; not shown: human IgG1 heavy chain constant region with Fc region, from the vector; human light chain constant region, printed as 'constant region of human IgG1') heavy (part 1 of 2): QVQLQQSGAELARPGASVKLSCKASGYTFTDYYINWAKQRTGQGLEWIGEIYPGSGDTYYNEKFKGKATLTADKSSSTAYMQLSSLTSEDSAVYFCARYGYKGVYFDYWGQSTTLTVSS heavy (part 2 of 2): TGSDDLCYTFPCMHY light: ENVLTQSPAIMAASLGQKVTMTCSASSSVSSSYLHWYQQKSGASPKPLIHRTSNLASGVPARFSGSGSGTSYSLTISSVEAEDDATYYCQQWSGYPFTFGAGTKLELK | 1.22 nM | 1.16 nM |
| Syn-Ang-VEGFR-17 (other, Chimeric (human IgG1) SAITAng-2-4 with the peptide at the C-terminus of the heavy chain; also called SAITAng-2-4 x DTN8VEGFR-2-2; not shown: human IgG1 heavy chain constant region with Fc region, from the vector; human light chain constant region, printed as 'constant region of human IgG1') heavy (part 1 of 2): QVQLQQSGAELARPGASVKLSCKASGYTFTDYYINWAKQRTGQGLEWIGEIYPGSGDTYYNEKFKGKATLTADKSSSTAYMQLSSLTSEDSAVYFCARYGYKGVYFDYWGQSTTLTVSS heavy (part 2 of 2): EAGKETCGYEWQYCPRP light: ENVLTQSPAIMAASLGQKVTMTCSASSSVSSSYLHWYQQKSGASPKPLIHRTSNLASGVPARFSGSGSGTSYSLTISSVEAEDDATYYCQQWSGYPFTFGAGTKLELK | 0.998 nM | 1.05 nM |

Reference: US20110076723A1, “ANTIBODY-PEPTIDE FUSED SYNERGIBODY” (SAMSUNG ELECTRONICS CO., LTD., priority 2008, published 2011)
